{"source": "patent US20170198056A1", "about": "(MEDICINAL CHEMISTRY PHARMACEUTICALS, published 2017)", "binders": {"B1": {"name": "Monoclonal antibody SN-101 (antibody, V domains shown)", "VH": "EVNLEESGGGLVQPGGSMKLSCVASGFTFSNYWMNWVRQSPEKGLEWVAQIRLKSDNYATHYAESVKGRFTISRDDSKSSVYLQMNNLRAEDTGIYYCTGGVFDYWGQGTTLTVSS", "VL": "not shown", "notes": "Mouse monoclonal antibody from a hybridoma; it was purified on Protein G and detected with anti-mouse IgG; The array assay used culture supernatant diluted 10-fold; also called antibody of hybridoma strain 3A9-4B1 (NITE BP-01845)"}, "B2": {"name": "Monoclonal antibody SN-102 (antibody, V domains shown)", "VH": "EVQLQQSGAELVKPGASVKLSCTASGFNIKDYYMHWVKQRTEQGLEWIGRIDPEDGETKYAPKFQGKAIITADTSSNTAYLQLSSLTSEDTAVYYCVHFYYGYDVGRGYWGQGTTLTVSS", "VL": "DIVMSQSPSSLAVSVGEKVTMSCKSSQSLLYSSNQKNYLAWYQQKPGQSPKLLIYWASTRESGVPDRFTGSGSGTDFTLTISSVKAEDLAVYYCQQYYSYTFGGGTKLEIK", "notes": "Mouse monoclonal antibody from a hybridoma; it was purified on Protein G and detected with anti-mouse IgG; The array assay used culture supernatant diluted 10-fold; also called antibody of hybridoma strain 3C10-E11"}}, "biological_target": "T1, MUC1 expressed on breast cancer cells (OCUB-M, MCF-7) (human, UniProt P15941 24-1255, native O-glycosylation of the cancer cells, not defined)", "T1 construct": "whole, on cells; OCUB-M cells were fixed and treated with Triton X-100; MCF-7 cells were fixed with formaldehyde; also called MUC1 expressing cells", "T1 sequence (P15941 24-1255)": "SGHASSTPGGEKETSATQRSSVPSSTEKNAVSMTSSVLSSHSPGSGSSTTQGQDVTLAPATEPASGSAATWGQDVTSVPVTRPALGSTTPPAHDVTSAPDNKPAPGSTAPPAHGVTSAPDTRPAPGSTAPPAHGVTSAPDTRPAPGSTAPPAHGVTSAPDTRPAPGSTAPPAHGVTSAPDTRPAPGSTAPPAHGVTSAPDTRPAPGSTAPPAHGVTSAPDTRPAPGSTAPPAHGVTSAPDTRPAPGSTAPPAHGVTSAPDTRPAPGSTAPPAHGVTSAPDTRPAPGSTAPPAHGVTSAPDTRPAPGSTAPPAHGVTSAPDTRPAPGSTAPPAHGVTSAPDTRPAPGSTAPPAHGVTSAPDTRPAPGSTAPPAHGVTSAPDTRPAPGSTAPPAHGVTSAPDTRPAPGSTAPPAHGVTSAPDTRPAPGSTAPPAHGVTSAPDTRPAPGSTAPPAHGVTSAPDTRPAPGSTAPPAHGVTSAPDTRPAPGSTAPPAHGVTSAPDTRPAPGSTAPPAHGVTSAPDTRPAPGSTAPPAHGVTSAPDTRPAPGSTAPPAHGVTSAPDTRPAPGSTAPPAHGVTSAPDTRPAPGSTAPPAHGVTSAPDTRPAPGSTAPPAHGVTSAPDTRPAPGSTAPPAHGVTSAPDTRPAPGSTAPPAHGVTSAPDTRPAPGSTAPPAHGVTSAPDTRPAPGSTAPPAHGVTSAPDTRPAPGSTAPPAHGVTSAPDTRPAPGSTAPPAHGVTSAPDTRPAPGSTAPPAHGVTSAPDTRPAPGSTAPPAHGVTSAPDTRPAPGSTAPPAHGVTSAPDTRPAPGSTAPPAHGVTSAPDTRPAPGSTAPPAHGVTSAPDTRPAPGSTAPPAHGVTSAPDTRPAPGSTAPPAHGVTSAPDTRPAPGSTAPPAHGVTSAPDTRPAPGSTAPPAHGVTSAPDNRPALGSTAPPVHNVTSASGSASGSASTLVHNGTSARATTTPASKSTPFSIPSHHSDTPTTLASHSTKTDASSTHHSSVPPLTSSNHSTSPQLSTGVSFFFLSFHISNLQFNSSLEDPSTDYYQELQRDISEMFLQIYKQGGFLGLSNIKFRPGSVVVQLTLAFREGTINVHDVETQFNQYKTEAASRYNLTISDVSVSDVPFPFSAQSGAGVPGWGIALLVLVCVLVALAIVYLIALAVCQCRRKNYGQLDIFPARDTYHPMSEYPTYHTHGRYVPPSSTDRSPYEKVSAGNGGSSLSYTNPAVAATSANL", "assay": "immunofluorescence staining of fixed OCUB-M breast cancer cells, 10 ug/mL antibody"}
{"binder": "B1", "values": [{"measurement": "binding result", "result": "binds"}]}
{"binder": "B2", "values": [{"measurement": "binding result", "result": "binds"}]}
